# Measured values: patent publication US12331106B2, “Anti-angiopoietin-2 antibodies that induce Tie2 activation” (Institute for Basic Science, priority 2018, dated 2025)
# Tests used:
# [1] = test system: LLC (Lewis Lung Carcinoma) tumor; assay: Tumor growth inhibition in LLC subcutaneous model; type: in vivo, C57BL/6 mice; details: LLC s.c.; antibody 10 mg/kg i.p. every 2-3 days; Cpt 3 mg/kg i.p. once
# Protocol: 2C8H11 anti-Ang2 antibody was tested for its ability to inhibit tumor growth in LLC (Lewis Lung Carcinoma) cell line tumor model. Specifically, LLC cell line (ATCC) was cultured in DMEM (GIBCO™) supplemented with 10% FBS (GIBCO™). LLC cells (1×10^6 in 100 μl of PBS) were subcutaneously injected into 6˜8-week-old C57BL/6 mice (Jackson Laboratory) which were anesthetized with a mixture of Ketamine and Xylazine. When the volume of the tumors reached 50˜100 mm^3, the mice were intraperitoneally administered with 10 mg/kg of 2C8H11 antibody every 2˜3 days. Cisplatin (Cpt) was injected intraperitoneally once at a dose of 3 mg/kg in both monotherapy and combination therapy groups. The changes in tumor volume was tracked over the following days. Tumor volume (V) was measured using the formula: V=(width^2×length)/2 V=(width^2×length)/2
# The experiment was performed in 4 groups: Fc (control group), Fc+Cpt group, 2C8H11 group, and 2C8H11+Cpt group. […] Meanwhile, combined treatment with 2C8H11 and Cpt delayed tumor growth by 47% compared with Fc.
# [2] = test system: tumor vessels of LLC tumor; assay: Tumor vessel normalization (CD31, PDGFRβ immunofluorescence) in LLC tumors; type: in vivo, C57BL/6 mice; details: compared with Fc or Fc+Cpt
# Source text: In order to investigate the changes in tumor vessels by 2C811 antibody, we obtained frozen sections of tumor samples and performed immunofluorescence analyses by staining with a blood vessel-specific marker, CD31, and pericyte-specific marker, PDGFRβ. In detail, the tumor samples were harvested from the mice from the experiment described in Example 8, which were fixed in 4% paraformaldehyde (PFA, Merck), dehydrated in 30% sucrose (Junsei), embedded in OCT compound (Leica), and sectioned using a cryostat (Leica). The resulting frozen sections were blocked for 1 hr using a Protein Blocking Buffer (DAKO). Then the sections were stained with hamster anti-CD31 antibody (1:200, Millipore®) and rat anti-PDGFRB antibody (1:200, eBioscience™) in PBS at 4° C. for 8 hrs. After washing 3 times with PBS, the sections were stained with ALEXA FLUOR® 488-conjugated anti-hamster IgG antibody and Alexa ALEXA FLUOR® 594-conjugated anti-rat IgG antibody (1:1000, Jackson Immunoresearch) in PBS for 1 hr at room temperature. After another 3 washes with PBS, the sections were mounted in fluorescence mounting medium (DAKO) using a coverslip (Marienfeld). The stained sections were imaged using LSM880 confocal microscope (Zeiss). […]
# Tie2 receptor = assay: Tie2 phosphorylation in HUVECs (immunoprecipitation/Western); type: cell-based, human; details: antibody 0.02-50 μg/ml with hAng2 1 μg/ml, 30 min
# Protocol: Ang2 binds to the Tie2 receptor and acts as a weak agonist or antagonist. The anti-Ang2 antibody developed in this invention binds to Ang2 to induce Ang2-antibody complexes, further causing clustering of Tie2 receptors and consequently enhancing activation of Tie2 receptor. Experiments were conducted to analyze the effect of anti-Ang2 antibody on Tie2 phosphorylation using HUVECs.
# Specifically, HUVECs (LONZA™) were cultured in EGM-2 (LONZA™) at 37° C. and 5% CO2 concentration in a 100 mm culture dish. At 80-90% confluency, the cells were changed to EBM-2 (LONZA™) medium for 2 hrs˜ 6 hrs for serum starvation. Humanized anti-Ang2 antibodies at various concentrations (0.02 μg/ml to 50 μg/ml) were mixed with hAng2 protein (1 μg/ml, R&D® Systems) for 30 min. Then, the mixtures were treated with the cultured cells and further incubated for 30 min. The cells were washed twice with cold PBS and then lysed in 1000 μl of lysis buffer (10 mM Tris-Cl pH 7.4, 150 mM NaCl, 5 mM EDTA, 10% glycerol, 1% TRITON™ X-100 (non-ionic polyoxyethylene surfactant), protease inhibitor, phosphatase inhibitor) and then lysed at 4° C. for 60 min. Cell extracts were prepared and centrifuged at 12,000 rpm for 10 min. The supernatant was quantitated by bicinchoninic (BCA) assay.
# To 0.5 mg of cell lysate, 1 μg of Tie2 antibody (R&D® Systems, AF313) was added and incubated overnight at 4° C. […]
molecule,measurement,setting,value
"2C8H11: humanized anti-Ang2 human IgG1 antibody from mouse 2C8; VH SEQ ID NO: 55, VL SEQ ID NO: 56 (antibody, V domains shown, human IgG1 constant regions; VH; VL) VH: QVQLVQSGAEVKKPGASVKVSCKASGYTFTSYWMHWVRQAPGQGLEWMGMIDPSDSETRLNQKFKDRVTMTRDTSTSTVYMELSSLRSEDTAVYYCARRFYYGSDWYFDVWGQGTLVTVSS VL: DIQLTQSPSFLSASVGDRVTITCKASQDVGTAVAWYQQKPGKAPKLLIYWASTRHTGVPSRFSGSGSGTEFTLTISSLQPEDFATYYCQQYSSYPLTFGQGTKVEIK",tumor growth inhibition compared with Fc,[1],29%
same,PDGFRβ+ pericyte coverage increase,[2],2.4 fold
same,tumor blood vessel (BV) density reduction,[2],56%
same,phosphorylation of Tie2,Tie2 receptor,strongly induced in a dose-dependent manner
